Drawing on the RNAGym collection of RNA variant scans (doi:10.7554/elife.80360), this text covers self-cleavage for 78 variants.

B1: CPEB3 Ribozyme (parent)
chain: GGGGGCCACAGCAGAAGCGUUCACGUCGCGGCCCCUGUCAGAUUCUGGUGAAUCUGCGAAUUCUGCUGU

The variants in the data set derive from B1. As to the kind of experiment: self-cleavage, relative activity (ratio to wild type); higher = more cleavage; co-transcriptional.
Regarding GGGGGCCACAGCAGAAGCGUUCAUGUCGCGGCCACUGUCAGAUUCUGGUGAAUCUGCGAAUUCUGCUGU, the self-cleavage came to 0.263.
The same measure for GGGGGCCACAGCAGAAGCGUUCAUGUCGCGGCCGCUGUCAGAUUCUGGUGAAUCUGCGAAUUCUGCUGU: 0.283; for GGGGGCCACAGCAGAAGCGUUCAUGUCGCGGCCUCUGUCAGAUUCUGGUGAAUCUGCGAAUUCUGCUGU: 0.858.
The value for GGGGGCCACAGCAGAAGCGUUCAUGUCGCGGCACCUGUCAGAUUCUGGUGAAUCUGCGAAUUCUGCUGU was 0.465; that for GGGGGCCACAGCAGAAGCGUUCAUGUCGCGGCUCCUGUCAGAUUCUGGUGAAUCUGCGAAUUCUGCUGU was 0.856; that for GGGGGCCACAGCAGAAGCGUUCAUGUCGCGGCGCCUGUCAGAUUCUGGUGAAUCUGCGAAUUCUGCUGU was 0.294.
The same measure for GGGGGCCACAGCAGAAGCGUUCAGGUCGCGGCCCCUGUCAGAUUCUGGCGAAUCUGCGAAUUCUGCUGU: 0.523.
GGGGGCCACAGCAGAAGCGUUCAGGUCGCGGCCCCUGUCAGAUUCAGGUGAAUCUGCGAAUUCUGCUGU: the self-cleavage is 0.452.
Consider GGGGGCCACAGCAGAAGCGUUCAGGUCGCGGCCCCUGUCAGAUUCCGGUGAAUCUGCGAAUUCUGCUGU, for which the self-cleavage was 0.505.
Take GGGGGCCACAGCAGAAGCGUUCAGGUCGCGGCCCCUGUCAGAUUCGGGUGAAUCUGCGAAUUCUGCUGU: the self-cleavage is 0.471.
The same measure for GGGGGCCACAGCAGAAGCGUUCAUGUGGCGGCCCCUGUCAGAUUCUGGUGAAUCUGCGAAUUCUGCUGU: 0.189.
The same measure for GGGGGCCACAGCAGAAGCGUUCAUGUUGCGGCCCCUGUCAGAUUCUGGUGAAUCUGCGAAUUCUGCUGU: 0.193.
On to GGGGGCCACAGCAGAAGCGUUCAGGUCGCGGCCCCUGUCAGAUUCUGGUGAAUCUGCGAAGUCUGCUGU, for which the self-cleavage amounted to 0.306.
The same measure for GGGGGCCACAGCAGAAGCGUUCAGGUCGCGGCCCCUGUCAGAUUCUGGUGAAUCUGCGAAAUCUGCUGU: 0.173; for GGGGGCCACAGCAGAAGCGUUCAGGUCGCGGCCCCUGUCAGAUUCUGGUGAAUCUGCGAACUCUGCUGU: 0.284.
The same measure for GGGGGCCACAGCAGAAGCGUUCAGGUCGCGGCCCCAGUCAGAUUCUGGUGAAUCUGCGAAUUCUGCUGU: 0.118; for GGGGGCCACAGCAGAAGCGUUCAGGUCGCGGCCCCGGUCAGAUUCUGGUGAAUCUGCGAAUUCUGCUGU: 0.146; for GGGGGCCACAGCAGAAGCGUUCAGGUCGCGGCCCCCGUCAGAUUCUGGUGAAUCUGCGAAUUCUGCUGU: 0.171.
GGGGGCCACAGCAGAAGCGUUCAGGUCGCGGCCCCUGUCAGAUUCUGGUGAAUCUGCGAAUUCUGCUUU: the self-cleavage stood at 0.699.
On to GGGGGCCACAGCAGAAGCGUUCAGGUCGCGGCCCCUGUCAGAUUCUGGUGAAUCUGCGAAUUCUGCUAU, for which the self-cleavage worked out at 0.725.
On to GGGGGCCACAGCAGAAGCGUUCAGGUCGCGGCCCCUGUCAGAUCCUGGUGAAUCUGCGAAUUCUGCUGU, for which the self-cleavage amounted to 0.348.
The same measure for GGGGGCCACAGCAGAAGCGUUCAGGUCGCGGCCCCUGUCAGAUACUGGUGAAUCUGCGAAUUCUGCUGU: 0.514; for GGGGGCCACAGCAGAAGCGUUCAGGUCGCGGCCCCUGCCAGAUUCUGGUGAAUCUGCGAAUUCUGCUGU: 0.413.
In the case of GGGGGCCACAGCAGAAGCGUUCAGGUCGCGGCCCCUGGCAGAUUCUGGUGAAUCUGCGAAUUCUGCUGU, the self-cleavage was 0.215.
The same measure for GGGGGCCACAGCAGAAGCGUUCAUGUCGCGGCCCCUGUCAGAUUCUGGUGAAUCUGCGACUUCUGCUGU: 0.254; for GGGGGCCACAGCAGAAGCGUUCAUGUCGGGGCCCCUGUCAGAUUCUGGUGAAUCUGCGAAUUCUGCUGU: 0.246.
The same measure for GGGGGCCACAGCAGAAGCGUUCAUGUCGAGGCCCCUGUCAGAUUCUGGUGAAUCUGCGAAUUCUGCUGU: 0.292; for GGGGGCCACAGCAGAAGCGUUCAUGUCGUGGCCCCUGUCAGAUUCUGGUGAAUCUGCGAAUUCUGCUGU: 0.143.
With GGGGGCCACAGCAGAAGCGUUCAGGUCGCGGCCCCUGUCAGAUUCUGGUCAAUCUGCGAAUUCUGCUGU, the self-cleavage worked out at 0.347.
The same measure for GGGGGCCACAGCAGAAGCGUUCAGGUCGCGGCCCCUGUCAGAUUCUGGUAAAUCUGCGAAUUCUGCUGU: 0.392; for GGGGGCCACAGCAGAAGCGUUCAGGUCGCGGCCCCUGUCAGAUUCUGGUUAAUCUGCGAAUUCUGCUGU: 0.441; for GGGGGCCACAGCAGAAGCGUUCAUGUCGCGGCCCCUGUCAGAUUCUGGUGCAUCUGCGAAUUCUGCUGU: 0.782.
The value for GGGGGCCACAGCAGAAGCGUUCAGGUCGCGGCCCCUGUCAGACUCUGGUGAAUCUGCGAAUUCUGCUGU was 0.309.
Consider GGGGGCCACAGCAGAAGCGUUCAGGUCGCGGCCCCUGUCAGAAUCUGGUGAAUCUGCGAAUUCUGCUGU, for which the self-cleavage is 0.348.
As for GGGGGCCACAGCAGAAGCGUUCAUGUCGCGGCCCCUGUCAGAUUCUGGUGAAUCUGCGCAUUCUGCUGU, the self-cleavage was determined as 0.281.
The same measure for GGGGGCCACAGCAGAAGCGUUCAUGUCGCGGCCCCUGUCAGAUUCUGGUGAAUCUGCGGAUUCUGCUGU: 0.866.
The same measure for GGGGGCCACAGCAGAAGCGUUCAUGUCGCGGCCCCUGUCAGAUUCUGGUGAAUCUGCGAAUUCUGCUGU: 0.844; for GGGGGCCACAGCAGAAGCGUUCAUGUCGCGGCCCCUGUCGGAUUCUGGUGAAUCUGCGAAUUCUGCUGU: 0.738.
For the variant GGGGGCCACAGCAGAAGCGUUCAUGUCGCGGCCCCUGUCUGAUUCUGGUGAAUCUGCGAAUUCUGCUGU, the self-cleavage is 0.317.
The value for GGGGGCCACAGCAGAAGCGUUCAGGUCGCGGCCCCUCUCAGAUUCUGGUGAAUCUGCGAAUUCUGCUGU was 0.219.
As for GGGGGCCACAGCAGAAGCGUUCAGGUCGCGGCCCCUAUCAGAUUCUGGUGAAUCUGCGAAUUCUGCUGU, the self-cleavage worked out at 0.131.
The value for GGGGGCCACAGCAGAAGCGUUCAGGUCGCGGCCCCUGUCAGAUUCUGGUGAAUCUGCGAAUUCUACUGU was 0.26.
The same measure for GGGGGCCACAGCAGAAGCGUUCAGGUCGCGGCCCCUGUCAGAUUCUGGUGAAUCUGCGAAUUCUGCUGC: 0.739; for GGGGGCCACAGCAGAAGCGUUCAGGUCACGGCCCCUGUCAGAUUCUGGUGAAUCUGCGAAUUCUGCUGU: 0.14; for GGGGGCCACAGCAGAAGCGUUCAGGUCGCGGCCCCUGUCAGAUUCUGGUGAAUCUGCGAAUGCUGCUGU: 0.203.
Turning to GGGGGCCACAGCAGAAGCGUUCAGGUCGCGGCCCCUGUCAGAUUCUGGUGAAUCUGCGAAUACUGCUGU, the self-cleavage came out at 0.27.
The same measure for GGGGGCCACAGCAGAAGCGUUCAGGUCGCGCCCCCUGUCAGAUUCUGGUGAAUCUGCGAAUUCUGCUGU: 0.134; for GGGGGCCACAGCAGAAGCGUUCAGGUCGCGACCCCUGUCAGAUUCUGGUGAAUCUGCGAAUUCUGCUGU: 0.185.
Turning to GGGGGCCACAGCAGAAGCGUUCAUGUCGCGGCCCCUGUCAGAUUCUGGUGACUCUGCGAAUUCUGCUGU, the self-cleavage was 0.791.
The value for GGGGGCCACAGCAGAAGCGUUCAUGUCGCGGCCCCUGUCAGAUUCUGGUGAAUUUGCGAAUUCUGCUGU was 0.808; that for GGGGGCCACAGCAGAAGCGUUCAUGUCGCGGCCCCUGUCAGAUUCUGGUGAAUAUGCGAAUUCUGCUGU was 0.561; that for GGGGGCCACAGCAGAAGCGUUCAGGUCGCGGCCCCUGUCAGAUUCUGGUGAAUCUGCGAAUUCUGCAGU was 0.368.
Regarding GGGGGCCACAGCAGAAGCGUUCAUGUCGCGGCCCUUGUCAGAUUCUGGUGAAUCUGCGAAUUCUGCUGU, the self-cleavage was found to be 0.579.
The value for GGGGGCCACAGCAGAAGCGUUCAGGUCGCGGCCCCUGUCAGAUUCUGGUGAAUCUGCAAAUUCUGCUGU was 0.247; that for GGGGGCCACAGCAGAAGCGUUCAGGUCGCGGCCCCUGUCAGAUUCUGGUGAAUCUGCCAAUUCUGCUGU was 0.248.
The value for GGGGGCCACAGCAGAAGCGUUCAGGUCGCGGCCCCUGUCAGAUUCUGGUGAACCUGCGAAUUCUGCUGU was 0.235.
The value for GGGGGCCACAGCAGAAGCGUUCAGGUCGCGGCCCCUGUCAGAUUCUGGUGAAGCUGCGAAUUCUGCUGU was 0.177; that for GGGGGCCACAGCAGAAGCGUUCAGGUCGCGGCCCCUGUCAGAUUCUGGUGAAACUGCGAAUUCUGCUGU was 0.339; that for GGGGGCCACAGCAGAAGCGUUCAGGUCGCGGCCCCUGUCAGAUUCUGGUGAAUCAGCGAAUUCUGCUGU was 0.36.
For the variant GGGGGCCACAGCAGAAGCGUUCAGGUCGCGGCCCCUGUCAGAUUCUGGUGAAUCGGCGAAUUCUGCUGU, the self-cleavage was found to be 0.191.
For the variant GGGGGCCACAGCAGAAGCGUUCAGGUCGCGGCCCCUGUCACAUUCUGGUGAAUCUGCGAAUUCUGCUGU, the self-cleavage turned out to be 0.18.
Consider GGGGGCCACAGCAGAAGCGUUCAUGUCGCGGACCCUGUCAGAUUCUGGUGAAUCUGCGAAUUCUGCUGU, for which the self-cleavage came to 0.414.
On to GGGGGCCACAGCAGAAGCGUUCAUGUCGCGGGCCCUGUCAGAUUCUGGUGAAUCUGCGAAUUCUGCUGU, for which the self-cleavage worked out at 0.211.
Consider GGGGGCCACAGCAGAAGCGUUCAGGUCGCGGCCCCUGUCAGAUUCUUGUGAAUCUGCGAAUUCUGCUGU, for which the self-cleavage turned out to be 0.508.
The value for GGGGGCCACAGCAGAAGCGUUCAGGUCGCGGCCCCUGUCAGAUUCUAGUGAAUCUGCGAAUUCUGCUGU was 0.491; that for GGGGGCCACAGCAGAAGCGUUCAGGUCGCGGCCCCUGUCAGAUUCUGGUGAAUCUGCGAAUUCCGCUGU was 0.315.
The same measure for GGGGGCCACAGCAGAAGCGUUCAGGUCGCGGCCCCUGUCAGAUUCUGGUGAAUCUGCGAAUUCGGCUGU: 0.338.
The same measure for GGGGGCCACAGCAGAAGCGUUCAUGUCGCGGCCCCUGUCAGAUUAUGGUGAAUCUGCGAAUUCUGCUGU: 0.743; for GGGGGCCACAGCAGAAGCGUUCAUGUCGCGGCCCCUGUCAGAUUGUGGUGAAUCUGCGAAUUCUGCUGU: 0.776.
Consider GGGGGCCACAGCAGAAGCGUUCAUGUCGCGGCCCCUGUCAGUUUCUGGUGAAUCUGCGAAUUCUGCUGU, for which the self-cleavage turned out to be 0.654.
The value for GGGGGCCACAGCAGAAGCGUUCAUGUCGCGGCCCCUGUCAGGUUCUGGUGAAUCUGCGAAUUCUGCUGU was 0.631; that for GGGGGCCACAGCAGAAGCGUUCAGGUCGCGGCCCCUGUCAGAUUCUGGUGAAUCUUCGAAUUCUGCUGU was 0.299; that for GGGGGCCACAGCAGAAGCGUUCAGGUCGCGGCCCCUGUCAGAUUCUGGUGAAUCUACGAAUUCUGCUGU was 0.22.
For the variant GGGGGCCACAGCAGAAGCGUUCAGGCCGCGGCCCCUGUCAGAUUCUGGUGAAUCUGCGAAUUCUGCUGU, the self-cleavage was determined as 0.386.
The value for GGGGGCCACAGCAGAAGCGUUCAGGUCGCGGCCCCUGUCAGAUUCUGUUGAAUCUGCGAAUUCUGCUGU was 0.528; that for GGGGGCCACAGCAGAAGCGUUCAGGUCGCAGCCCCUGUCAGAUUCUGGUGAAUCUGCGAAUUCUGCUGU was 0.308; that for GGGGGCCACAGCAGAAGCGUUCAGGUCGCCGCCCCUGUCAGAUUCUGGUGAAUCUGCGAAUUCUGCUGU was 0.128.
The value for GGGGGCCACAGCAGAAGCGUUCAGGUCGCUGCCCCUGUCAGAUUCUGGUGAAUCUGCGAAUUCUGCUGU was 0.173.
